# The DeepSol protein solubility set
# Assay: soluble on expression in E. coli; label from the status in PepcDB or PDB records
row,Sequence,soluble on expression in E. coli
1,SENSDVINFSCLEKELHSALQADRKYQRENDAKFRALNQKVASYEEFRDIVLASHLKPLDRNDISGSPRKQPWNPVACRTNYVCASSEQVQPQLSEVQPRSASEFIRDWRRFAGCSFEKYSLLVSLGGEALQKIFSTEIGLGLLGEFLLILSQCLKSGDEDRVTGVLDGLSKTGRFSINLSLLSQAEQEACEELFNKLKVAAGECHPYKDNSNTSVVCEAGLTHMEDNKTDITTTLKELAGKYGTEK,soluble
2,MAHHHHHHMCDPLVERFISDIIRDPQAWKRAVTSPDNRCCLLPTSNVIRSLAGPLFRRGCVDNVSSLRFLTTLRRDTLSGGNVQRVSMKRKDLRGPWDHRTRVSEEDQPNILIQLLVRQLERNGFGTSYRKAVYSLLGKQVKEMSKKKRQHDAAATAKTMKLNARRIEHLLMEEYNERKKTCDREGRRRQALVRGFFNKASVVVENEEFIGRRTIFQDALDECFAIKTLMEGETQKLTGIPPEHQRNYFAIQQKEKHERECLLARFETQRRAIYLQLQHDIKNSIKSEIRRIMRREKHIEELYKKHGCGK,not soluble
3,MISKRPDIYTQHDKAFSAVSAYVVLNSANERVATVALKFPCDGAGRLYAYVHWVGLEMVRGWAGGYGYDKRSAACASAARRIAIGNLTGDEWTNRRHEATAFVEALEKDSGEDWTRQLEAAGFKVFQAV,not soluble
4,MPESTNFTEEITQWVESLPNWGKAAVAGGVALAVYIPYKFMATRPRKSPLNENWKPDVVYLYQFPRARLLPNLSPFCMKVETWLRMSDITYEIPPCSLSTRSQEGTLPFVELNGKEYYDSSFILRDIDQVIKHTSLDDHLSAEQKATSRAFEAMSEKSLAISACYYRMENVEKMLDQFDPKLFGIFGFLFKLIGSRTYVSALLRRITGSDIGFHSREDIINIGSEDLKAISKYLGNKHYFHGFKPTKVDACIFSHLCQIYYAPYTSEHRDLIDGECKNLAEYVERIKNRFYPDWDDVTTKFSTDTSNWKKRHVARNGNGKH,not soluble
5,MSRLRIYTESGELIKDITDPKEIAEELQKINVLFERWRANAPLKENASDEEIINAYKHEIDRLINKYGFQSYDVIAMTPEHPKKDELRQKFLKEHTHSDFEVRYFVYGDGVFYLHPNDKVYILHCTAGDLISVPPNTKHWFDMGENPNFKCIRLFTTPEGWVAEYTGSDIAEKFPKYEEVVNGLEHHHHHH,soluble
6,PSEHLEHLFQYIVNDDKTYMKKLVSGHGIVDPTNPYEEFKLTKLQAAIQRKIGYTFDPKSERLLPPTLTELEKGNAVLAHHLIQSFSPEDDLTPEKIHEIGYNTVMELTGGEYEFVIATHVDKEHLHNHIIFSSTNLKTGKAFRWQKGTKKVFEQISDKIAAKEGAKIIEKSPKQTHTKYTKWQTESIYKQKIKSRLDFLLEQSSSINDFLEKAEALNLSADFSNKWTTYRLLDEPQIKNTRSRSLSKSDPTRYNYEKIIERLKENKNVL,not soluble
7,MSTTIRFLRIVTSRAMSSSWSCNKCTFLNSASQKLNCMICLAPVSLPSLSPPPPSLSISANDEAKWACKACTFLNTYKNSICDVCGTRSPTSSLLGFQDLTDSGLESNDADSSVGSVFFPLRRCIKRKAMDDDVVEVDGASVVCSESQGVMKKNKEIETKGVASDSGTPLTCLKILSYNVWFREDLELNLRMRAIGHLIQLHSPHLICFQEVTPEIYDIFRKSNWWKAYSCSVSVDVAVSRGYYCMLLSKLGVKSFSSKSFGNSIMGRELSIAEVEVPGRKPLVFATSHLESPCPGPPKWDQMFSRERVEQAKEAIEILRPNANVIFGGDMNWCDKLDGKFPLPDKWVDVWEVLKPGDLGFTYDTKANPMLSGNRALQKRLDRILCRLDDYKLGGIEMVGKEAIPGLSYVKEKKVRGDIKKLELPVLPSDHFGLLVTLSPK,soluble
8,MGSDKIHHHHHHMKKISYIFASILLTASLSGCNDFLDVTPSDQYSDASVFTSTEGAQQVLIGAYDWFTNGHYAHYTNQYIFFMPDVMADDAMVNSTGNYNRFVSPYQYSITPSSTYSVDPWIGCYSLIDNCNAILDNLETLPESSERNRIEGESLALRTYAYHYLIRMYAKPVNKYPDNPGVILRLTSSTTDIPRSTVKDCYVQMVNDIEKACTLLTGTSSSSKCYITEQAAHGIAARIYLDLGDYTNGTSHANKALSEITLMSKADYKNKFCENNTETIWYFTCTSTDKQSFLSLPAFWYYCDQDSTYVKDGYSSLGVAKELIDIFDDTDIRKTLFVKIDGKYYKRNGSYVTCKINSRKNDDSDGTKGSGTVAFAEGDYNMMRGSEMYLIIAELAADNNHEDEALAALNKVREARGISAYSGTGDVLKTEIQNERRRELFAEGHRLFDLKRRDLPMDRSNLTLDWSRVGLIPAGSDKLEMPIPQNEIDANGALTIADQNPAYK,not soluble
9,MSLYQHGYHAGNFADVIKHITLTRLLAYLTHKDKPLFYLETHSGRGIYDLKDKQSLKTEEYKEGINPVWLDRENLPSLFLEYISVIKQINLNSTLSYYPGSPYFAINQLRSQDRLYLCELHPTEYNFLLKLPHFNKKVYVNHTDGVSKLNALLPPPEKRGLIFIDPSYERKEEYKEIPYAIKNAYSKFSTGLYCVWYPVVNKAWTEQFLRKMREISSKSVRIELHLNPLINEGMTGCGLWIINPPYTFPSEIKLVLETLTTYFNPGSSSYMIESGSKLCHGLKGIITITTDPNSSSVDKLAAALEHHHHHH,soluble
10,MNEKQKLESGQVHPSDKKSEKDYSKYFEAVYIPPSLKDAKKRGKEAVTYHNDFKISEQFKGLGDGRKFYIRTYGCQMNEHDTEVMAGIFMALGYEATNSVDDANVILLNTCAIRENAENKVFGELGHLKALKKNNPDLILGVCGCMSQEESVVNRILKKHPFVDMIFGTHNIHRLPELLSEAYLSKEMVVEVWSKEGDVIENLPKVRNGKIKGWVNIMYGCDKFCTYCIVPYTRGKERSRRPEDIIQEVRRLASEGYKEITLLGQNVNAYGKDFEDMTYGLGDLMDELRKIDIPRIRFTTSHPRDFDDRLIEVLAKGGNLLDHIHLPVQSGSSEVLKLMARKYDRERYMELVRKIKEAMPNASLTTDIIVGFPNETDEQFEETLSLYREVEFDSAYTFIYSPREGTPAAKMKDNVPMRVKKERLQRLNALVNEISAKKMKEYEGKVVEVLVEGESKNNPDILAGYTEKSKLVNFKGPKEAIGKIVRVKIQQAKTWSLDGEMVGEAIEVKLEHHHHHH,soluble
11,MSNPQPEKVRVVVGDDHPLFREGVVRALSLSGSVNVVGEADDGAAALELIKAHLPDVALLDYRMPGMDGAQVAAAVRSYELPTRVLLISAHDEPAIVYQALQQGAAGFLLKDSTRTEIVKAVLDCAKGRDVVAPSLVGGLAGEIRQRAAPVAPVLSAREREVLNRIACGQSIPAIAAELYVAPSTVKTHVQRLYEKLGVSDRAAAVAEAMRQRLLD,soluble
12,MSLTIITMIRFYGFSVMLENEQLKIEYGLFNKKKVTVPTKRLQAVVERQSYIRRLFGYTAIHFIITSDFENKKIEDDDNDSGSVPILPFIKRDKAYQIIQNLVPDLSYQQVNEGMPLSGFHEGHHHHHH,not soluble
13,MLLIDKGHDIYKRNCPILQKKIEKCPPPAGKKDYAGCVPACSITNGFGGAGAYSDGKFNITSEFGGWMTDYLPASTVLELIRYVDEINLKHGATTSITDPMTDKVKEIERRAYAAGLKLLRAYVRHLGTEQNLAILQSIFEYLRERITMRFKTEVDDIVTERTEDGHEVKGVVLKNGETLTAEKVVIAPGRDGSVWLSKLLRKRRLRMINNQVDIGVRVETSNIVMQEINEHLYEGKFIFNTSVGTQVRTFCSNPSGHVVVENHSGIMLANGHAYKDPKLGSSNTNFALLVSHKFADPFDKPNEYAHEISRLANALSNGGIIVQKYGDILKGRRSTEKRIKEGFIEPTLKEAVPGDLGLVLPYNTMKSLIEMTEALNHVTPGLASEHTLFYGVEAKFYSARPKLNDRFETEIAGLYVGGDGAGITRGLAQASACGVWIARDIVEKLTRLEHHHHHH,not soluble
14,MSLENKRILITGGAGFIGSNMVEHLLPKNEVTVIDNLSITDDRYIKKFYDNPNFKFIKKDILNGIDGYHYDIVVHLAADSDVRNGSSNPALDMKVNVEGTISVLEMMRKSDIKDILFASSSTVYGEAKVIPTPENYGPLLPISSYGASKLAAEAFISAYASYYGFNALLFRFANVVGKNSTHGVIFDFINKLKNNKKELEVLGDGTQAKSYIHVEDLIGSMIYVYEHVKGVEPFNLGNDDVTSVDKIAKFVLEAMGLKDTAIVHRGGYNGRGWPGDVKYAMMDIAKLKKTGWKNKYSSDEAVKKSINEVMNQILEGHHHHHH,soluble
15,MSLKKVTLLVLDGFGVGAMADCEKVKPEDVNANTYKHLREAVDIHIPTLYQLGLGNIVDHLDTARAAYGRCDLAHHGADTFMGHQELMGSKPGVPQKRLMSEVGATIKKNLEKHGYDVRDPVEGAPVLLVNEAVVVGDNLESEVGNIINVVGDFRKLSFEQTIEVGKVVRSSVDTSRVIVYGNKEKTSIDLILSTIKERHPGQWGVDSPKANVYGEGYQVLHLGYGVDYEKQFAHLAEKQRLPVYRIGKTADVIQASGYHNPVVSTRKVLEVYQHEYSKSERDSVFLVNVQETDLAGHKEDCLWYKEVIEEVDRFLASFIDELDEEDLLIITADHGNDPTIGHSNHTREQTPVIIVGPQVRPISIGTRQTMADLAATMADYMGVAPPQYGTSFLHQILREGHHHHHH,soluble
16,MSALQSLRPALRTAYGLAVRSDIDLPELEPLPGDGAADLTVRRGALPELPGEGGFRTRFAPERAELWWQTVGTFRVEPGLVTASPHAGVSEDLVAYPLLGSVLALALEQLGLFTIHASAVSVGGHGVVMMGDKGAGKSTTATAMIRAGHPLIADDIVAVDEGFRLRPGFPQVKLSPAAAAAFDAPDAVHRPTVPEVPEKCRVLLPERFARGATPLKRIYRLERAPAGTEPAVISVSPIEALPLALRFAYVTRFGAEALNGAAGARHLRQAAAIAASGVLHRVIVPHALDRLPEVVALIERDAGAAALEHHHHHH,not soluble
17,MKTLIEIKQTPDGIIKADKVFNKVKDKISLPNRILYLGCGSSHFLSKLLAMVTNMHGGLGIALPCSEFLYSKETYPIGEVELAVGISRSGETTEILLALEKINVKKLGITTRESSLTRMCDYSLVVPAIEESVVMTHSFTSFYFAYLQLLRYSYGLPPLNAGEISKATEKSLEYERYIREIVESFDFQNIIFLGSGLLYPVALEASLKMKEMSIFWSEAYPTFEVRHGFKAIADEKTLVVLMVEEPFEWHEKLVKEFKNQGAKVLVISNSPQDLGQDYSIELPRLSKDANPIPYLPIVQLLSYYKAVSRGLNPDNPRFLDKVVRW,soluble
18,MGSDKIHHHHHHMADFSNQIVTIKKGLDLPIAGEPRQVIELGAKPSQVAVLGEEFVGLKPTMLVEEGDWVQKGQALFEDKKTPGVLFTAPASGQVVAINRGERRILQSVVIRCDDGENRDGQISFEIHQDIAALARSTVQAQLVKSGLWTALRTRPFSRVPALDSTPAGIFVTAIDTNPLAADPRLIIAEQTEAFKAGLLVLSRLTEGKVYLCQDKGEAIVKEALPQLEVRRFDGVHPAGLVGTHIHFTLPVSLERQVWHIGYQDVIAYGKLFQTGELYTDRIVALGGPSVLNPRLLRTQLGAELSPLVSDDIKPGQNRVVSGSVLSGHTAVGVHDFLGRFHNQVSVLSEDAQHHVLSWVRGGSDKFSITRAVTSRLFGATKLFEFTTHQGGSARAMMAFGQLDRVMPLDILPTLLVRDLVVRDTDEAQALGALELDEEDLALCTFVCPGKYDFGKELRACLDVIEREG,not soluble
19,MLLDSIFFRTHPDWIVCCRFLQGVGTDREKREENGRKKTVKITIFSDCMLWANPISLCIRHRAVFNNRNLRMDFSSYTILCLNRLDAWIPAFGIPK,not soluble
20,MGSDKIHHHHHHMSKVFIVGAAGNVGRRLTQQLAQRGHTLMAMHRHPDQADAIQAAGGVSVLGDITQISATDLATLMSGNDAIVFSAGAGGKGIQLTNDVDGKGLELAVEAAQLAGIQRFILVSVFPDALRGGSVSASFENYMLVKKHADVHLVSTDLDWVILRPGTLLDEVGTGKVNAAVAIPYGSVSRDDVAATLVELIEQPKVNRIIIELTQGEIPINDAISRLVAQ,not soluble
